Test results: PMC11628620, “A core network in the SARS-CoV-2 nucleocapsid NTD mediates structural integrity and selective RNA-binding”

How the values were obtained:
[1] = target: SARS-CoV-2 nucleocapsid NTD WT (SARS-CoV-2 (Wuhan-Hu-1), UniProt P0DTC9 44-180); experiment: MST; conditions: protein: recombinant; tags: His6-Trx cleaved by TEV; one extra N-terminal G; label: 3'-Cy5; hairpin
[2] = target: T1, SARS-CoV-2 nucleocapsid NTD WT (SARS-CoV-2 (Wuhan-Hu-1), UniProt P0DTC9 44-180); experiment: MST; conditions: protein: recombinant; tags: His6-Trx cleaved by TEV; one extra N-terminal G; label: 3'-Cy5; transiently folds as stem-loop
[3] = target: T1, SARS-CoV-2 nucleocapsid NTD WT; experiment: EMSA; conditions: protein: recombinant; tags: His6-Trx cleaved by TEV; one extra N-terminal G; hairpin with 22 nt 3' extension

B1: SL4 (3'-Cy5) (structured_RNA)
RNA: GGGUGUGGCUGUCACUCGGCUGCAUGCUUAGUGCACUCACGCCC
B1 showed a Kd [1] of 14.1 ± 2.23 µM.

B2: Ext (3'-Cy5) (ssRNA)
RNA: GGAUAAUUAAUAACUAAUUACU
Work on B2 yielded a Kd [2] of 0.334 ± 0.047 µM.

B3: SL4ext (structured_RNA)
RNA: GGUCUGUGUGGCUGUCACUCGGCUGCAUGCUUAGUGCACUCACGCAGUAUAAUUAAUAACUAAUUACUG
B3: binds [3].
